Where “and” joins values, the source holds several entries; their conditions need not be identical. Identical values can stand only once.
Experiments:
[1] = tested on: subjects with symptomatic eosinophilic esophagitis (EoE); experiment: Phase 2 study in EoE patients: EEsAI PRO score; assay type: in vivo, human; set-up: EEsAI PRO score, Mean / EEsAI PRO score, Median: scale not given here; conditions: for EEsAI PRO score, Mean change / EEsAI PRO score, LSMD versus placebo: Change to Week 16
Procedure: Additionally, a comparison of the mean EEsAI PRO scores at baseline and at week 16 between the placebo group and the treatment group was conducted.

human type IL-13 = human type IL-13 (Homo sapiens, UniProt P35225, Q144R); conditions: see US patent pub. No. 2014/0341913; cited from earlier work
[2] = tested on: subjects with symptomatic eosinophilic esophagitis (EoE); experiment: Phase 2 study in EoE patients: subject's global assessment of disease severity; assay type: in vivo, human; conditions: for subject's global assessment of disease severity, Mean change / subject's global assessment of disease severity, LSMD versus placebo: Change to Week 16; for subject's global assessment of disease severity, LSMD versus placebo: ANCOVA
Procedure: North America and Switzerland. […] Safety was monitored throughout the study. […] The study was powered for the primary endpoint. […] Still further, the effectiveness of RPC4046 (over placebo) in lowering a subject's global assessment of disease severity at week 16 was analyzed.

[3] = biological target: IL-13 sequence variant, R110Q (Homo sapiens, UniProt P35225); experiment: Binding of the antibody to IL-13 variant
[4] = tested on: subjects with symptomatic eosinophilic esophagitis (EoE); experiment: Phase 2 study in EoE patients: dysphagia symptom composite diary score (daily symptom diary, DSD); assay type: in vivo, human; set-up: dysphagia symptom composite diary score, Mean change / dysphagia symptom composite diary score, Mean / dysphagia symptom composite diary score, Median: scale not given here; conditions: for dysphagia symptom composite diary score, Mean change / dysphagia symptom composite diary score, LSMD versus placebo: Change to Week 16
Text: Safety was monitored throughout the study. […] The study was powered for the primary endpoint. […]

Chain of human type IL-13 (P35225 15-146 Q144R limits assumed): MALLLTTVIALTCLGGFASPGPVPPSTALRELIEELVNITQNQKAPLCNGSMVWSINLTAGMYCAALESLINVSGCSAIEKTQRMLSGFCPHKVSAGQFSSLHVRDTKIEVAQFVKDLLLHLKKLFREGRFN
Chain of IL-13 sequence variant, R110Q (P35225 35-146, stated change not applied): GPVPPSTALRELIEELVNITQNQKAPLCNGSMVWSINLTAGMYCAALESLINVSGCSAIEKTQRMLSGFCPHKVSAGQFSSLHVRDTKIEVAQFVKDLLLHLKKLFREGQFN

B1: RPC4046: recombinant humanized, high-affinity, selective anti-IL-13 monoclonal antibody; heavy chain variable region SEQ ID NO: 2, light chain variable region SEQ ID NO: 3 (antibody, V domains shown)
VH: EVTLRESGPGLVKPTQTLTLTCTLYGFSLSTSDMGVDWIRQPPGKGLEWLAHIWWDDVKRYNPALKSRLTISKDTSKNQVVLKLTSVDPVDTATYYCARTVSSGYIYYAMDYWGQGTLVTVSS
VL: DIQMTQSPSSLSASVGDRVTISCRASQDIRNYLNWYQQKPGKAPKLLIFYTSKLHSGVPSRFSGSGSGTDYTLTISSLQPEDIATYYCQQGNTLPLTFGGGTKVEIK
mean EEsAI PRO at week 16 ([1]; 180 mg and 360 mg, week 16): dose-dependent reduction
EEsAI PRO score, Mean ([1]; 180 mg, Baseline): 58.1
EEsAI PRO score, Median ([1]; 180 mg, Baseline): 61.0
EEsAI PRO score, Mean change ([1]; 180 mg): −19.8
EEsAI PRO score, LSMD versus placebo ([1]; 180 mg, ANCOVA): −4.0
EEsAI PRO score, Mean ([1]; 180 mg, Week 16): 39.3
EEsAI PRO score, Median ([1]; 180 mg, Week 16): 49.0
EEsAI PRO score, LSMD versus placebo ([1]; 180 mg, non-steroid-refractory): 4.9
EEsAI PRO score, Mean change ([1]; 180 mg, non-steroid-refractory): −20.4
EEsAI PRO score, LSMD versus placebo ([1]; 180 mg, steroid refractory): −13.5
EEsAI PRO score, Mean change ([1]; 180 mg, steroid refractory): −19.1
EEsAI PRO score, Mean ([1]; 360 mg, Baseline): 56.2
EEsAI PRO score, Median ([1]; 360 mg, Baseline): 58.0
EEsAI PRO score, Mean change ([1]; 360 mg): −23.0
EEsAI PRO score, LSMD versus placebo ([1]; 360 mg, ANCOVA): −7.2
EEsAI PRO score, Mean ([1]; 360 mg, Week 16): 33.2
EEsAI PRO score, Median ([1]; 360 mg, Week 16): 30.5
EEsAI PRO score, LSMD versus placebo ([1]; 360 mg, non-steroid-refractory): −1.2
EEsAI PRO score, Mean change ([1]; 360 mg, non-steroid-refractory): −25.2
EEsAI PRO score, LSMD versus placebo ([1]; 360 mg, steroid refractory): −15.5
EEsAI PRO score, Mean change ([1]; 360 mg, steroid refractory): −20.8
mean EEsAI PRO score in the steroid refractory sub-group ([1]; sub-group analysis, week 16): statistically significant reduction
binding affinity to helices A and D of interleukin 13 (IL-13) (human type IL-13): binds with great affinity
subject's global assessment of disease severity, Mean ([2]; 180 mg, Baseline): 5.0
subject's global assessment of disease severity, Median ([2]; 180 mg, Baseline): 5.0
subject's global assessment of disease severity, Mean change ([2]; 180 mg): −2.0
subject's global assessment of disease severity, LSMD versus placebo ([2]; 180 mg): −0.9
subject's global assessment of disease severity, Mean ([2]; 180 mg, Week 16): 2.8
subject's global assessment of disease severity, Median ([2]; 180 mg, Week 16): 3.0
subject's global assessment of disease severity, Mean ([2]; 360 mg, Baseline): 5.4
subject's global assessment of disease severity, Median ([2]; 360 mg, Baseline): 5.0
subject's global assessment of disease severity, Mean change ([2]; 360 mg): −2.8
subject's global assessment of disease severity, LSMD versus placebo ([2]; 360 mg): −1.3
subject's global assessment of disease severity, Mean ([2]; 360 mg, Week 16): 2.5
subject's global assessment of disease severity, Median ([2]; 360 mg, Week 16): 2.0
subject's global assessment of disease severity at week 16 over placebo ([2]; treatment arm, 180 mg and 360 mg, week 16): dose-dependent reduction
binding to IL-13 sequence variant, R110Q [3]: binds
dysphagia symptom composite diary score, Mean ([4]; 180 mg, ITT, Baseline): 27.63 and 27.6
dysphagia symptom composite diary score, Median ([4]; 180 mg, ITT, Baseline): 28.5
dysphagia symptom composite diary score, Mean change ([4]; 180 mg, ITT): −5.3
dysphagia symptom composite diary score, LSMD versus placebo ([4]; 180 mg, ITT, ANCOVA): 0.02
dysphagia symptom composite diary score, Mean ([4]; 180 mg, ITT, Week 16): 21.9
dysphagia symptom composite diary score, Median ([4]; 180 mg, ITT, Week 16): 26.1
dysphagia symptom composite diary score, Mean change ([4]; 180 mg, non-steroid-refractory pts): −10.0
dysphagia symptom composite diary score, LSMD versus placebo ([4]; 180 mg, non-steroid-refractory): 0.93
dysphagia symptom composite diary score, Mean change ([4]; 180 mg, steroid-refractory pts): −1.3
dysphagia symptom composite diary score, LSMD versus placebo ([4]; 180 mg, steroid-refractory): −1.3
dysphagia symptom composite diary score, Mean ([4]; 360 mg, ITT, Baseline): 29.03 and 29
dysphagia symptom composite diary score, Median ([4]; 360 mg, ITT, Baseline): 27.5
dysphagia symptom composite diary score, Mean change ([4]; 360 mg, ITT): −13.3
dysphagia symptom composite diary score, LSMD versus placebo ([4]; 360 mg, ITT, ANCOVA): −6.50
dysphagia symptom composite diary score, Mean ([4]; 360 mg, ITT, Week 16): 15.3
dysphagia symptom composite diary score, Median ([4]; 360 mg, ITT, Week 16): 6.2
dysphagia symptom composite diary score, Mean change ([4]; 360 mg, non-steroid-refractory pts): −14.0
dysphagia symptom composite diary score, LSMD versus placebo ([4]; 360 mg, non-steroid-refractory): −3.1
dysphagia symptom composite diary score, Mean change ([4]; 360 mg, steroid-refractory pts): −12.3
dysphagia symptom composite diary score, LSMD versus placebo ([4]; 360 mg, steroid-refractory): −12.0
mean dysphagia symptom composite diary score at week 16 compared to the controls ([4]; both low dose (180 mg) and high dose (360 mg)): reduction
mean dysphagia symptom composite diary score in steroid-refractory subjects ([4]; subgroup analysis, 180 mg and 360 mg, week 16): dose-dependent reduction

Reference: patent US12129294B2, “Methods of treatment of diseases in which IL-13 activity is detrimental using anti-IL-13 antibodies” (AbbVie Inc., priority 2016, dated 2024)
